25 molecules from US20190233493A1 (Sanofi, published 2019) can be followed below.

The assay concerns the target T1, RXFP1 receptor (UniProt Q9HBX9 1-757, limits assumed).
T1 sequence (looked up): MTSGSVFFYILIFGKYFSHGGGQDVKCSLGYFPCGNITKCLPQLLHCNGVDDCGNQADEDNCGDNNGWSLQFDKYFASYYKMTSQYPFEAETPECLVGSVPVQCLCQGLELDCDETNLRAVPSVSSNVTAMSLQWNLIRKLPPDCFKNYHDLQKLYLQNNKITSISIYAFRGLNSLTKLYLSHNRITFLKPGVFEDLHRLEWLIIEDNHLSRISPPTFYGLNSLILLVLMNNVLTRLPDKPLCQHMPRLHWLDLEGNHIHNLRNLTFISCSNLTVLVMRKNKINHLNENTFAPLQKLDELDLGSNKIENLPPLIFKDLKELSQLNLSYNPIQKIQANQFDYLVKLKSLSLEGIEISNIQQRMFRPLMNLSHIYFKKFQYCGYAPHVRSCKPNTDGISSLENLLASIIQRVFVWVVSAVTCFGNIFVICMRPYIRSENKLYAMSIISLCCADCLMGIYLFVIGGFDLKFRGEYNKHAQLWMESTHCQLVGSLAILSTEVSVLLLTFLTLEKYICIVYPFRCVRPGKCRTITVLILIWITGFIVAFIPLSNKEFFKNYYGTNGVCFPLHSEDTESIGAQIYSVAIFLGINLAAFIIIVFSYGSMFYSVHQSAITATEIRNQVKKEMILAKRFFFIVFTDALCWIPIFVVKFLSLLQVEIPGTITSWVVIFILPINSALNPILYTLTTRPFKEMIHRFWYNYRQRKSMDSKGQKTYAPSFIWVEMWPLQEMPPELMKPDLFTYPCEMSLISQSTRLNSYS
Put plainly: cell-based or functional assay.

*1 amine or outer side, *2 acyl side, *3 side chain or, on linkers, in order; H or OH if unused. Primed or numbered codes have the meaning given here. Side-chain parts run from the residue outwards. [ ]: non-standard residue; d: D form. The star is where a group is joined. PEG4′ = 2-[2-[2-[2-[2-aminoethoxy]ethoxy]ethoxy]ethoxy]propanoyl; Lys(Me3) = C[N+](C)(C)CCCC[C@H](N)C(=O)O; αMeW = C[C@](N)(Cc1c[nH]c2ccccc12)C(=O)O; γGlu = O=C(O)[C@H](CCC(=O)[*:2])N[*:1]; Arg(Me) = CNC(=N)NCCC[C@H](N)C(=O)O; Stearoyl = CCCCCCCCCCCCCCCCCC(=O)*; Palmitoyl = CCCCCCCCCCCCCCCC(=O)*; Cit = NC(=O)NCCC[C@H](N)C(=O)O; αMeK = C[C@](N)(CCCCN)C(=O)O; Lauroyl = CCCCCCCCCCCC(=O)*; Nle = CCCC[C@H](N)C(=O)O; PEG2′ = PEG2 spacer unit; Aib = CC(C)(N)C(=O)O

In the case of Ac-LEGREKVRAK(Ac)I[Aib][Aib]EG[Nle]ST[αMeW]S[αMeK]RKK(Ac)[PEG2′][PEG2′][PEG2′]K([γGlu-γGlu-γGlu-γGlu-Palmitoyl])-NH2 [peptide of SEQ ID NO: 125], the “EC50 (nM), OVCAR 5 cells (cAMP)” value is 0.1 nM and the “EMax, OVCAR 5 cells (cAMP)” value worked out at 89%.
As for Ac-LEGREKVRAK(Ac)I[Aib][Aib]EG[Nle]STWS[Aib]RKK(Ac)K([PEG2′-PEG2′-PEG2′-γGlu-γGlu-γGlu-γGlu-Stearoyl])-NH2 [peptide of SEQ ID NO: 128], the “EC50 (nM), OVCAR 5 cells (cAMP)” value is 0.22 nM and the “EMax, OVCAR 5 cells (cAMP)” value was 91%.
In the case of Ac-LEGREKVRAK(Ac)I[Aib][Aib]EG[Nle]STWS[αMeK][Cit]AK(Ac)K([PEG2′-PEG2′-PEG2′-PEG2′-γGlu-γGlu-γGlu-Stearoyl])-NH2 [peptide of SEQ ID NO: 132], the “EC50 (nM), OVCAR 5 cells (cAMP)” value stood at 1.7 nM and the “EMax, OVCAR 5 cells (cAMP)” value came to 87%.

B1: peptide of SEQ ID NO: 136 (peptide)
peptide: Ac-LEGREKVRAK(Ac)I[Aib][Aib]EG[Nle]STWSXRKK(Ac)[PEG2′][PEG2′][PEG2′][PEG2′][γGlu][γGlu][γGlu]K([γGlu-Palmitoyl])-NH2
modifications: not fully specified (some residues); printed as Ac-L-E-G-R-E-K-V-R-A-K(Ac)-I-Aib-Aib-E-G-Nle-S-T-W-S-Mly-R-K-K(Ac)-PEG2-PEG2-PEG2-PEG2-gE-gE-gE-K(gE-Palm)-NH2
On to B1, for which the “EC50 (nM), OVCAR 5 cells (cAMP)” value was found to be 0.03 nM and the “EMax, OVCAR 5 cells (cAMP)” value is 92%.
Taken in the same sequence, the figures for Ac-LEGREKVRAQI[Aib][Aib]EG[Nle]STWS[Aib]RKK(Ac)[PEG2′][PEG2′][PEG2′][PEG2′][γGlu][γGlu]K([γGlu-Palmitoyl])-NH2 [peptide of SEQ ID NO: 121] were 0.76 nM and 91%.
The like results for Ac-LEGREKVRAQI[Aib][Aib]EG[Nle]STWS[Aib]RK[PEG2′]K([PEG2′-γGlu-γGlu-γGlu-Palmitoyl])-NH2 [peptide of SEQ ID NO: 12] were, in that order, 26.7 nM and 76%.
Taken in the same sequence, the figures for Ac-LEGREKVRAK(Ac)I[Aib][Aib]EG[Nle]STWS[Aib][Arg(Me)][Lys(Me3)]K(Ac)K([PEG2′-PEG2′-PEG2′-γGlu-γGlu-γGlu-Stearoyl])-NH2 [peptide of SEQ ID NO: 137] were 0.21 nM and 92%.
Regarding Ac-LEGREKVRAK(Ac)I[Aib][Aib]EG[Nle]STWS[Aib][Cit]AK(Ac)K([PEG2′-PEG2′-PEG2′-γGlu-γGlu-γGlu-Stearoyl])-NH2 [peptide of SEQ ID NO: 126], the “EC50 (nM), OVCAR 5 cells (cAMP)” value amounted to 9.6 nM and the “EMax, OVCAR 5 cells (cAMP)” value stood at 91%.
Taken in the same sequence, the figures for Ac-LEGREKVRAK(Ac)I[Aib][Aib]EG[Nle]STWS[αMeK]RKK(Ac)[PEG2′][PEG2′][PEG2′][PEG2′]K([γGlu-γGlu-γGlu-γGlu-Palmitoyl])-NH2 [peptide of SEQ ID NO: 131] were 0.26 nM and 92%.
The like results for Ac-LEGREKVRAK(Ac)I[Aib][Aib]EG[Nle]STWS[Aib]RKK(Ac)K([PEG2′-PEG2′-PEG2′-PEG2′-γGlu-γGlu-γGlu-γGlu-Palmitoyl])-NH2 [peptide of SEQ ID NO: 130] were, in that order, 0.3 nM and 93%.
Regarding Ac-LEGREKVRAK(Ac)I[Aib][Aib]EG[Nle]STWS[Aib]RKK(Ac)K([PEG2′-PEG2′-PEG2′-γGlu-γGlu-γGlu-Lauroyl])-NH2 [peptide of SEQ ID NO: 120], the “EC50 (nM), OVCAR 5 cells (cAMP)” value is 110 nM and the “EMax, OVCAR 5 cells (cAMP)” value is 92%.
The like results for Ac-LEGREKVRAQI[Aib][Aib]EG[Nle]STWS[Aib]RK[PEG2′]K([PEG2′-PEG2′-γGlu-γGlu-γGlu-Palmitoyl])-NH2 [peptide of SEQ ID NO: 13] were, in that order, 8.1 nM and 81%.
The like results for Ac-LEGREKVRAK(Ac)I[Aib][Aib]EG[Nle]STWS[Aib][Arg(Me)]KK(Ac)K([PEG2′-PEG2′-PEG2′-γGlu-γGlu-γGlu-Stearoyl])-NH2 [peptide of SEQ ID NO: 133] were, in that order, 0.01 nM and 83%.
The like results for Ac-LEGREKVRAK(Ac)I[Aib][Aib]EG[Nle]STWS[Aib]RKK(Ac)[PEG4′]K([γGlu-γGlu-γGlu-Stearoyl])-NH2 [peptide of SEQ ID NO: 123] were, in that order, 0.38 nM and 88%.
Regarding Ac-LEGREKVRAK(Ac)I[Aib][Aib]EG[Nle]STWS[Aib]RKK(Ac)[PEG4′][PEG4′]K([γGlu-γGlu-γGlu-Stearoyl])-NH2 [peptide of SEQ ID NO: 124], the “EC50 (nM), OVCAR 5 cells (cAMP)” value worked out at 0.29 nM and the “EMax, OVCAR 5 cells (cAMP)” value is 88%.
Taken in the same sequence, the figures for Ac-LEGREKVRAK(Ac)I[Aib][Aib]EG[Nle]STWS[Aib]R[Lys(Me3)]K(Ac)K([PEG2′-PEG2′-PEG2′-γGlu-γGlu-γGlu-Stearoyl])-NH2 [peptide of SEQ ID NO: 134] were 6.3 nM and 100%.

B2: peptide of SEQ ID NO: 122 (peptide)
peptide: LEGREKVRAQIXXEGXSTWSXRKKKX
modifications: Ac-L-E-G-R-E-K-V-R-A-Q-I-Aib-Aib-E-G-Nle-S-T-W-S-Aib-R-K-K-K-PEG4-PEG4-K(gE-gE-gE-gE-gE-Stea)-NH2
Take B2: the “EC50 (nM), OVCAR 5 cells (cAMP)” value was determined as 0.1 nM and the “EMax, OVCAR 5 cells (cAMP)” value worked out at 93%.
Taken in the same sequence, the figures for Ac-LEGREKVRAK(Ac)I[Aib][Aib]EG[Nle]STWS[αMeK]RAK(Ac)K([PEG2′-PEG2′-PEG2′-PEG2′-γGlu-γGlu-γGlu-Stearoyl])-NH2 [peptide of SEQ ID NO: 135] were 0.95 nM and 97%.
The like results for Ac-LEGREKVRAK(Ac)I[Aib][Aib]EG[Nle]STWS[Aib]RKK(Ac)[PEG2′][PEG2′][PEG2′][PEG2′][γGlu][γGlu]K([γGlu-Palmitoyl])-NH2 [peptide of SEQ ID NO: 116] were, in that order, 1 nM and 89%.
Taken in the same sequence, the figures for Ac-LEGREKVRAQI[Aib][Aib]EG[Nle]STWS[Aib]RKK(Ac)[PEG2′][PEG2′][PEG2′][γGlu][γGlu]K([γGlu-Palmitoyl])-NH2 [peptide of SEQ ID NO: 119] were 1.21 nM and 83%.
In the case of Ac-LEGREKVRAK(Ac)I[Aib][Aib]EG[Nle]STWS[Aib]RKK(Ac)[PEG2′][PEG2′][PEG2′]K([γGlu-γGlu-γGlu-Stearoyl])-NH2 [peptide of SEQ ID NO: 14], the “EC50 (nM), OVCAR 5 cells (cAMP)” value is 0.04 nM and the “EMax, OVCAR 5 cells (cAMP)” value worked out at 88%.
The like results for Ac-LEGREKVRAQI[Aib][Aib]EG[Nle]STWS[Aib]RKK(Ac)[PEG2′][PEG2′][γGlu][γGlu]K([γGlu-Palmitoyl])-NH2 [peptide of SEQ ID NO: 118] were, in that order, 1.79 nM and 86%.
Taken in the same sequence, the figures for Ac-LEGREKVRAK(Ac)I[Aib][Aib]EG[Nle]STWS[αMeK][Arg(Me)][Lys(Me3)]K(Ac)K([PEG2′-PEG2′-PEG2′-γGlu-γGlu-γGlu-Stearoyl])-NH2 [peptide of SEQ ID NO: 138] were 0.02 nM and 91%.
Taken in the same sequence, the figures for Ac-LEGREKVRAK(Ac)I[Aib][Aib]EG[Nle]STWS[Aib]RKK(Ac)[PEG2′][PEG2′][PEG2′][γGlu][γGlu]K([γGlu-Palmitoyl])-NH2 [peptide of SEQ ID NO: 117] were 1.16 nM and 86%.
As to Ac-LEGREKVRAK(Ac)I[Aib][Aib]EG[Nle]STWS[αMeK][Cit]KK(Ac)K([PEG2′-PEG2′-PEG2′-γGlu-γGlu-γGlu-Stearoyl])-NH2 [peptide of SEQ ID NO: 129], the “EC50 (nM), OVCAR 5 cells (cAMP)” value was found to be 1 nM and the “EMax, OVCAR 5 cells (cAMP)” value is 89%.
